Results published in US20220000762A1, “COMPOSITIONS FOR TREATING OXIDATIVE STRESS-ASSOCIATED SKIN DISEASES AND SKIN AGEING AND DIAGNOSIS OF OXIDATIVE STRESS-ASSOCIATED SKIN DISEASES” (priority 2019, published 2022).

What was measured:
[1] = ABTS radical cation assay; assay type: biochemical
Experimental: FIG. 4: RoxP antioxidant activity under adverse conditions. The ability of RoxP to reduce ABTS radical cations, denoted by a decrease in absorbance at 734 nm, was tested in multiple settings. Different concentrations of recombinant RoxP (rRoxP) (0.2-3.2 μM) in sodium phosphate buffer (20 mM, pH 7.4) (A), rRoxP (2.7 μM) incubated with salt solutions (B), pre-heated rRoxP (2.7 μM) incubated for 20 min in temperatures ranging from RT to 98° C. and allowed to cool down to ambient temperature prior to activity measurements (C), or rRoxP (2 μM) stored at room temperature for up to 2 weeks (D) were added to a solution of pre-formed ABTS radicals and the absorbance recorded after 30 sec.
The reduction of pre-formed ABTS radical cations in the presence of RoxP was analysed using a spectrophotometric assay previously described by Re et al. (1999 Free Radic Biol Med 26:1231-1237). 2,2′-azinobis(3-ethylbenzothiazoline-6-sulfonic acid) diammonium salt (ABTS) (Sigma-Aldrich) was initially dissolved in ddH2O to a concentration of […]. Potassium persulfate (Merck KGaA, Darmstadt, Germany) was subsequently added to a final concentration of 2.45 mM and the resulting solution kept dark and incubated overnight at RT. Formed ABTS radicals were diluted with PBS (pH 7.4) until reaching an absorbance of approximately 0.7 at 734 nm. Antioxidants (1.7 μM) were added (1:9 v/v) and the absorbance spectrum 500 to 900 nm recorded after 30 sec.

[2] = test system: THP-1 cells; assay: MTT viability assay, paraquat oxidative stress, monocytes; assay type: cell-based, human
Experimental: (§1) Human keratinocytes (HaCat cells; disclosed in Boukamp et al. 1988 J Cell Biol 106:761-71 and available from Deutsches Krebsforschungszentrum, DKFZ, info@cell-lines-service.de; and also commercially available for example from Addexbio, San Diego, Calif., catalogue number T0020001) were grown in SFM medium supplemented with L-glutamine, EGF (epidermal growth factor) and bovine pituitary extract (Gibson, Invitrogen) until 90% confluency in 96-well plates (Nunc A/S, Roskilde, Denmark). Human monocytes (THP-1 cells; disclosed in Tsuchiya et al. 1980 Int J Cancer 26:171-6; commercially available for example from Sigma-Aldrich, catalogue number 88081201; kindly provided by Dr Arne Egesten, Lund University) were cultured in RPMI 1640 medium supplemented with Glutamax-1 (Gibco®, ThermoFisher Scientific), 100 μg/ml streptomycin, 100 μg/ml penicillin, and 10% v/v foetal calf serum (ThermoFisher Scientific). All cells were grown at 37° C. in 5% CO2 and 95% humidity.
(§2) HaCat cells cultured to 90% confluency, or THP-1 cells (1.2×10^6 cells/well) in a 96-well plate were treated with 2 mM paraquat (Sigma-Aldrich) and/or 5 μM RoxP for 24-48 h. […] Viability was measured by the addition of 0.5 mg/ml 3-(4,5-demethylthiazol-2-yl)-2,5-diphenyltetrazolium bromide (MTT) for 1-5 hours. […] The samples incubated for 30 minutes and absorbance at 550 nm was measured using a Wallac 1420 Multilabel Counter ([…]). […]

[3] = test system: HaCat cells; assay: MTT viability assay, paraquat oxidative stress, keratinocytes; assay type: cell-based, human
Experimental: as §1, §2

[4] = Ferrozine assay; assay type: biochemical; settings: incubation 17 hours
Experimental: The reagents used in the ferrozine assay included 100 μl of 50 mM iron ammonium dodecahydrate, 100 μl 2 mM ferrozine in H2O, and RoxP (50 μl) resulting in various RoxP concentrations indicated in the graph, diluted from a stock solution of 2 mg/ml RoxP in PBS. Incubation was Incubation 17 hours.

[5] = Lyophilisation of RoxP; assay type: physicochemical; settings: RoxP dissolved in water, absence of further excipients
Description: Lyophilisation of proteins is also a well-established procedure in the art and typically employs an aqueous solution of the protein to be lyophilised, optionally admixed with one or more suitable lyophilisation excipients, such as trehalose, sucrose, raffinose, maltodextrin, mannitol, and/or dextran. […] The inventors have additionally observed that mannitol, and particularly 2-6% w/v, preferably 2-5% w/v, more preferably 2-4% w/v, or even more preferably 2-3% w/v mannitol (relative to the volume of the solution to be lyophilised) was especially advantageous for production of stable cake and preservation of RoxP activity.

B1: RoxP: radical oxygenase of Propionibacterium acnes, secreted antioxidant protein of C. acnes; SEQ ID NO: 1 for strain KPA171202 (protein)
chain: MFVQIAASLAAASSIALGIPGAATPIDESQLPVGPQVSVTDSAQHTGPFAASSPLTITVKPGAPCVRADGYQESMVTRVLDDKGHQVWTGTFDESKLIGGTGLGTATFHVGSPAAAFNFHGSERTTYRTLSYCAYPHYVNGTRERLSQVSVKTFMVDPALN
modifications: Cutibacterium acnes
[1]; RoxP 2 mg/ml 10 μl, FMN/FDN 1 mM 1 μl or 3 μl, especially FDN
  reduction of ABTS radical when FMN/FDN was added: increased reduction
[1]; rRoxP 2 μM stored at room temperature for up to 2 weeks
  activity after long-term storage at room temperature: able to endure
[1]; rRoxP 2.7 μM incubated with salt solutions
  antioxidant activity in presence of CaCl2: loss of activity
[1]; rRoxP 2.7 μM pre-heated 20 min, RT to 98° C., cooled before measurement
  temperature endured without any significant loss of activity: above 70 °C
[1]; rRoxP 2.7 μM, physiological concentrations of NaCl
  antioxidant activity in presence of NaCl: withstood
[1]; rRoxP 0.2-3.2 μM, sodium phosphate buffer 20 mM pH 7.4
  reducing activity on ABTS radical cations: concentration-dependent reducing activity
[2]; 2 mM paraquat, 5 μM RoxP (1:400 RoxP:oxidizer), 48 h, effect more prominent than in keratinocytes
  effect on negative oxidative effect of paraquat (cell viability): completely inhibited
[2]; no paraquat
  overall viability in the absence of an added oxidizer: increase the overall viability
[3]; 2 mM paraquat, 5 μM RoxP (1:400 RoxP:oxidizer), 24 h, responded less well
  effect on negative oxidative effect of paraquat (cell viability): completely inhibited
[3]; no paraquat
  overall viability in the absence of an added oxidizer: increase the overall viability
[4]
  reduction of Fe^3+ to Fe^2+: confirmed reduction of Fe^3+ to Fe^2+
[5]
  preservation of RoxP activity after lyophilisation: satisfactorily preserved the activity
